# Test results from the RNAGym collection of RNA variant scans (doi:10.1073/pnas.2313332121).
# B1: TPR t1 (parent)
# chain: GACCAAUCUGCCCUCAGAGCUCGAGAACAUCUUCGGAUGCAGAGGAGGCAGGCUUCGGUGGCGCGAUAGCGCCAACGUCCUCAACCUCCAAUGCAUCCCACCACAUGAUGAUGCCUGAAGAGCCUUGGUUUUUUG
# Variants of: B1
# Test: polymerase ribozyme fitness, log enrichment relative to wild type (log ratio); higher = more active; in vitro selection for triplet polymerase activity
# Method in brief: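 A heterodimeric triplet polymerase ribozyme had each of its subunits mutagenized by PCR into a library, which was transcribed. One round of in vitro selection, done in triplicate, annealed each library with a biotinylated primer, its partner subunit and triplets, then incubated it frozen at −7 °C before gel excision of extended constructs, streptavidin-bead capture and RT-PCR. Fitness is the logarithm of genotype enrichment relative to wild-type enrichment, based on Illumina sequencing of inputs and outputs and inverse-variance-weighted replicate averages. A base-2 logarithm is used, and genotypes were kept only with ≥10 input reads and ≥1 read per output.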
row,Variant,polymerase ribozyme fitness (log ratio)
1,A2G C88A G93A C115A G117U,-6.36
2,A2G A27G G52U G63C U87C,-2.6
3,A2C C4U G36U C104U,-2.28
4,A2G A29G G120A C123G,-0.383
5,A2C C4G C114A,-3.53
6,A2G C62U U78A A103C,-5.9
7,A2G C85U A95G,-2.08
8,A2G C20U G36C C123U,-1.11
9,A2C C86U A90C,-4.21
10,A2G C8G U96A G135U,-1.73
11,A2C C115A,-1.3
12,A2G C13U C53G C72G,-0.413
13,A2G C40A C89U,-1.58
14,A2G C72U,0.0702
15,A2G C49U C62A C94G,-4.35
16,A2C C11A G60A G69U C89G G122A,-3.67
17,A2G C73A A90G A105G,-2.1
18,A2C C3G C28G C82G A121C G128C,-4.07
19,A2C C13A C72U,-4.81
20,A2C C73A,-1.09
21,A2C C4G G39C G69U C102U,-2.39
22,A2C C11G G17U G51C U55C C56G,-4.03
23,A2C C8G G48U G71A C101U,-2.14
24,A2C C56A G63A,-4.79

row,Variant,polymerase ribozyme fitness (log ratio)
1,A2C C98U,-3.19
2,A2G C70A,-1.82
3,A2G C70U,-0.43
4,A2G C22G A26G A84U G122A U130C,-5.4
5,A2G C62A,-0.128
6,A2C C64U,-1.07
7,A2C G39U A41C C56G C101A C123G,-4.81
8,A2C G120U C124A U131G,-1.15
9,A2G C89G G110U,-4.03
10,A2G C13A A68U C85A A103U G117U,-6.8
11,A2C C13U G77A C123U,0.26
12,A2C U33A G60A G71U C115U,-6.78
13,A2C A37U G48A U54A C73A C79G A119U G128U,-5.61
14,A2C U130A,-2.07
15,A2C U112A,-0.421
16,A2C G69A C101U C104U G113A G127C U129C,-5.09
17,A2C G52A,-2.22
18,A2G C89A,-2.01
19,A2C G63U A100U U133G,-3.47
20,A2G G10A C53U C62U A90G,-0.379
21,A2G C72U A74U C102U U130A,-3.21
22,A2C C123U G128C,-0.305
23,A2C U7C G113U G120C,-4.07
24,A2C C13A C22A C49G G63C C123U,-5.96

row,Variant,polymerase ribozyme fitness (log ratio)
1,A2G C13G C82G U129C,-1.79
2,A2G C12A,-0.474
3,A2C U7G A43C G63C C115U,-4.87
4,A2G C70A C123U,-0.0496
5,A2C U21G C72A G77U,-4.23
6,A2G C11G G42A C89G,-4.87
7,A2G C8G C22U,-5.08
8,A2G C13U A41C G48C U78G A111G,-1.71
9,A2C C3G A90G,-3.04
10,A2G C20G G71C G113C,-3
11,A2C C13U C86U G110U G120C,-4.02
12,A2G C11A G71U A90U U130A U133G,-2.92
13,A2C A27G A29U G77A G113A C124G,-3.05
14,A2G C114U G120U,-3.07
15,A2G A5C C11A G71U C99U,-3.65
16,A2G C12A C85A G113C,-5.2
17,A2C C12A C104U,-1.93
18,A2C G36A U54C,-2.04
19,A2C G120A C123A,-0.977
20,A2C C11U G61A G120A,-0.476
21,A2G C40G G45U G52A C124G,-2.61
22,A2G C11U G48C U92A,-4.56
23,A2G C56G C70G U112A,-3.63
24,A2G A41C G42A C82G C89A U92G G120U,-5.77

row,Variant,polymerase ribozyme fitness (log ratio)
1,A2G C13A C72U U129G,-2.36
2,A2G C73U G113A C114G A119U U126G,-5.02
3,A2G C34A A46G C73A,-2.49
4,A2G C12U A66G C79A G122A,-2.62
5,A2C C4A U9G C12G C104U U116C U133A,0.375
6,A2C C4U G10A G57C G61U,-2.37
7,A2G C62A C85A,-3.14
8,A2G C20U G60C,-1.66
9,A2C C72A C114G,-4.02
10,A2C C70U A91C C101U U112A U129C,-4.54
11,A2C G61C,-3.02
12,A2C U96A,-3.03
13,A2C U21A,-2.19
14,A2G C49U C79A C86G,-2.96
15,A2G C8G A43G G69C C98A C123A,-7.53
16,A2G C8A G63A G110A,-3.11
17,A2G G17A,-2.9
18,A2G C123U,1.06
19,A2C U112A G127A,-0.337
20,A2G C56G C89G A90C,-2.84
21,A2C C72U G117A,-3.25
22,A2G A50U G57C G60C C85G G113A,-2.81
23,A2G A6C C56U,0.182
24,A2G A6G C8A A46C U87C,-0.00636

row,Variant,polymerase ribozyme fitness (log ratio)
1,A2G A41U A46U,-3.37
2,A2C G47A G93U,-5.29
3,A2C U59A G122A,-2.15
4,A2C G120C,-0.618
5,A2C G120U,-0.948
6,A2C C11U C114G,-4.14
7,A2C C12A G110A U133A,-2.17
8,A2C G127U,-1.27
9,A2C C76U U126A,-1.99
10,A2C C114A,-3.32
11,A2C C114U,-3.24
12,A2C G71U G93A U112A G113C,-4.56
13,A2C C4A U7C G44A C56G C94U,-1.93
14,A2G C53A G60A A105C,-4.11
15,A2G C15G G44A C62A A90C C97U G120A,-3.89
16,A2C A37C C94U U96A U112C C114U,-4.55
17,A2G C15U A43U G45U C56U C62U,-6.15
18,A2G C13G A37U C49A C53A A100G C114A C124A,-7.24
19,A2C U54A C72G C104U G113A,-2.82
20,A2C C11U,-2.65
21,A2G C28U,-2.27
22,A2G C15G,-3.2
23,A2G C8U,0.157
24,A2G A111C U112G G113U U116A C124A,-2.74

row,Variant,polymerase ribozyme fitness (log ratio)
1,A2C C86U,-1.99
2,A2C C101A,-2.7
3,A2C C101U,-1.67
4,A2G C13U G69C,-0.807
5,A2G C13A A43U G51U C64U A83U A84G,-6.26
6,A2C A18U C124A,-3.22
7,A2G C88A A100U C115U,-3.59
8,A2C G61C A121C,-1.16
9,A2C G60A C82U,-2.16
10,A2G C101G,-1.53
11,A2G C11U C22G C62U U130A,-4.9
12,A2C C28U U87C,-3.82
13,A2C C53G C70G,-5.19
14,A2C C4A A5C U125G,-0.48
15,A2C G36C C62U,-2.66
16,A2G A41U G120U,-1.2
17,A2C U14G A37C C49G G60C U96A A111U,-6.59
18,A2C U7C C15U C72U A105U,-3.49
19,A2C C3U C56G G69U,-4.15
20,A2C G39C G69U U112C,-0.882
21,A2C A41C,-2.75
22,A2G C86G U126C,-2.8
23,A2C C13A,-2.71
24,A2C A5C C64U C114G C124A,-3.6

row,Variant,polymerase ribozyme fitness (log ratio)
1,A2G A91U U96G G120U,-2.53
2,A2G C12A C15U G45U U106A,-3.92
3,A2C G60C,-1.65
4,A2G C4A U7C G47C C56A A68G C99A G110U C115G G117C U129A,-7.47
5,A2C U109G C114U U129G,-5.24
6,A2C G69A,-3.57
7,A2C G17A G44C G45A C86U U109A U131C,-7.35
8,A2G C12U A43U G44U C115U,-2.29
9,A2C C11U C15U U55G A90G A121G,-0.451
10,A2G C13G,0.491
11,A2G,-0.0197
12,A2C,-1.4
13,A2G C62U G110A C114G C124A,-7.09
14,A2G C3A G39U U59A A105C U106A C123G,-2.32
15,A2G C88U,-0.191
16,A2C C8A C72U C123U,-0.16
17,A2C C49G,-2.18
18,A2C U38A C56A G113C U129A,-4.44
19,A2C C4G G51C C101A,-6.08
20,A2G C13U A46U C62A C86A G113U G120U C123G,-6.73
21,A2C C40U G60U C62G,-3.56
22,A2C G71C C99A A105U A111G,-6.44
23,A2G C102A C114U,-4.44
